The target in assay [1] is T1, androgen receptor (AR) N-terminus (18-500) (Rattus norvegicus, UniProt P15207).
T1 construct: receptor residues 18 through 500 (using the rat androgen receptor number scheme); expressed in transfected cells; host or cells: Saccharomyces cerevisiae EGY188
T1 sequence (P15207 18-500): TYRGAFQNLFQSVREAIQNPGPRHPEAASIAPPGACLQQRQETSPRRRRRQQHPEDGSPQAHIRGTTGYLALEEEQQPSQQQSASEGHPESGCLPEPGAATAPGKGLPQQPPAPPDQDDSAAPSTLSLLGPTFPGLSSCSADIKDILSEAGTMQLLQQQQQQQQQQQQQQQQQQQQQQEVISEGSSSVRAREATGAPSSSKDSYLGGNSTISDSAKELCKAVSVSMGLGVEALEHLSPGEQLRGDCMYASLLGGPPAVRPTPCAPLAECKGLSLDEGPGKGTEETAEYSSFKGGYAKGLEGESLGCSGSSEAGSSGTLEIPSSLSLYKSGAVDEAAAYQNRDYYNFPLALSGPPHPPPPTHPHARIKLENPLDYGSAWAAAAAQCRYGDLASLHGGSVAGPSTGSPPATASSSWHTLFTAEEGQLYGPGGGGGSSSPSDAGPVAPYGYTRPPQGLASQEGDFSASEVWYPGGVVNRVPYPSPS
As to the kind of experiment: Modified yeast two-hybrid, qualitative plate beta-galactosidase assay. The class given is binding. An excerpt:
(§1) The modified yeast two hybrid assay is described in Hittelman et al., 1999. EGY188 was transformed by the lithium acetate method with (i) pJG4-5:AR18-500, (ii) pEG202:LNCaP cell cDNA library and (iii) pJK103, a β-galactosidase reporter gene with a single LexA operator. Potential interacting proteins were selected by plating the cDNA library expressing transformants onto galactose plates lacking leucine and containing X-gal.
To analyze the specificity of ART interaction, the capacity of the strongest androgen receptor N-terminus-interacting factors to associate with a panel of transcriptional regulatory proteins in the modified yeast two-hybrid assay was examined. ART-5, ART-27, and ART-37 were tested for interaction with Sp1A (Sp183-262), Sp1B (Sp1263-524) the cyclic AMP response element binding protein (CREB3-296), TBP-associated factor 130 (TAFII130270-700), the glucocorticoid receptor AF1 (GR107-237), and the steroid receptor coactivator-1 (SRC-1374-800).
The strength of interaction was determined by a qualitative plate beta-galactosidase assay after a 24 hour incubation on galactose X-gal plates at 301 C.
ART-27 derivatives containing amino acids 1-45, 1-67, 1-127, 46-157, 68-157, 127-157, 1-157, and 1-45/127-157 were expressed as fusion proteins with LexA. These derivatives were tested for their ability to interact with the androgen receptor N-terminus (AR18-500). The strength of interaction was determined by a qualitative plate beta-galactosidase assay after a 24 hour incubation on galactose X-gal plates at 301 C.

For assay [2], the target named is T2, androgen receptor N-terminus (AR18-500) (Rattus norvegicus, UniProt P15207).
T2 construct: receptor residues 18 through 500 (using the rat androgen receptor number scheme); expressed in transfected cells; host or cells: Saccharomyces cerevisiae EGY188
T2 sequence (P15207 18-500): T1 sequence (P15207 18-500)
The assay is described as follows: Modified yeast two-hybrid, quantitative liquid beta-galactosidase assay. The class given is binding. Conditions: LexA-ART fusions vs AR18-500; twelve hour incubation in galactose-containing media. The protocol: as §1
Yeast were grown in selective liquid media containing 2% glucose for approximately 12 hours, pelleted, washed once with sterile H2O, normalized according to cell number and resuspended to an optical density (OD600) of 0.15 in 2% galactose/1% raffinose. β-galactosidase assays were performed 12 hours later as described previously (Garabedian et al., 1992).
Out of approximately one million library transformants, eight clones were isolated that interact with the androgen receptor N-terminus. There protein factors were termed ARTs, for Androgen Receptor Trapped, by the present inventors. The eight ART clones were sequenced and were subjected to a database search using the BLAST program. A quantitative liquid beta-galactosidase assay was used to measure the relative strength of interaction between the androgen receptor N-terminus and the ARTs using the yeast two-hybrid system. The levels of expression of the ARTs in yeast were similar, as determined by immunoblotting using an antibody to the LexA DNA-binding domain that is common to all of the ARTs.
ARTs expressed as fusion proteins with the LexA DNA binding domain were analyzed for their ability to interact with AR18-500. The relative strength of interaction was determined by a quantitative liquid beta-galactosidase assay after a twelve hour incubation in galactose-containing media at 30EC. The LexA vector alone gives 1 unit of activity.

B1: ART-5: Androgen Receptor Trapped protein, SEQ ID NO:4, unknown function, represented in EST database (protein)
chain: MHNPDGSASPTADPGSELQTLGQAARRPPPPRAGHDAPRRTRPSARKPLSCFSRRPMPTREPPKTRGSRGHLHTHPPGPGPPLQGLAPRGLKTSAPRPPCQPQPGPHKAKTKKIVFEDELLSQALLGAKKPIGAIPKGHKPRPHPVPDYELKYPPVSSERERSRYVAVFQDQYGEFLELQHEVGCAQAKLRQLEALLSSLPPPQSQKEAQVAARVWREFEMKRMDPGFLDKQARCHYLKGKLRHLKTQIQKFDDQGDSEGSVYF
modifications: Human
For B1, the “interaction with androgen receptor N-terminus” value in assay [1] (24 hour incubation on galactose X-gal plates) is reported as “interacts exclusively”. For the same molecule, the “specificity of interaction among panel of transcriptional regulatory factors” value in assay [1] (AR N-terminus, AR LBD, Sp1A, Sp1B, CREB, TAFII130, GR AF1, SRC-1) is given as “interacts rather specifically”. Further, the “relative strength of interaction with androgen receptor N-terminus” value in assay [2] is listed as “strongest”.

Values taken from patent US20080081903A1, “METHOD FOR SCREENING TRANSCRIPTIONAL COREGULATORY PROTEINS OF TRANSCRIPTION FACTORS, AND ANDROGEN RECEPTOR TRANSCRIPTIONAL COREGULATORY PROTEINS AS TARGETS FOR ANDROGEN RECEPTOR-DEPENDENT DISEASES” (NEW YORK UNIVERSITY, priority 2001, published 2008).
